The source of these data is publication PMC12136796.

Among the targets are mGFP-PICK1 5K-E (mouse) (UniProt Q62083); mGFP-KIBRA ΔC2 (mouse) (UniProt Q5SXA9); mCherry-PICK1 WT (mouse) (UniProt Q62083); mGFP-KIBRA ΔCCL (mouse) (UniProt Q5SXA9); mGFP-KIBRA ΔαBR (mouse) (UniProt Q5SXA9); mCherry-KIBRA WT (mouse) (UniProt Q5SXA9).
Test in all cases: co-IP

Chain of mCherry-PICK1 WT (mouse) (Q62083 whole entry): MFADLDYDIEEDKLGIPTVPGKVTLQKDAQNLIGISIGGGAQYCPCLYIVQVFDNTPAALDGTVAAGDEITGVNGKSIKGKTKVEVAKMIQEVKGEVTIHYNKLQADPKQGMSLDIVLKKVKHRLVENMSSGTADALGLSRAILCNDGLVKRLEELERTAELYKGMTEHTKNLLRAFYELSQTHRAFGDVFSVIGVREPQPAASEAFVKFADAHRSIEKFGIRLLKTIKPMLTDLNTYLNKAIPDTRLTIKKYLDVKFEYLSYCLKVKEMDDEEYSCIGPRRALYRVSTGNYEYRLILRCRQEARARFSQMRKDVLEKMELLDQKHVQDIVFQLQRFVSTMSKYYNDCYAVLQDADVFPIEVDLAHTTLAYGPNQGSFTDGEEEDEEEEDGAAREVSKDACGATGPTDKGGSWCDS
Chain of mGFP-PICK1 5K-E (mouse) (Q62083 whole entry): as above
Chain of mGFP-KIBRA ΔC2 (Q5SXA9 whole entry, stated change not applied): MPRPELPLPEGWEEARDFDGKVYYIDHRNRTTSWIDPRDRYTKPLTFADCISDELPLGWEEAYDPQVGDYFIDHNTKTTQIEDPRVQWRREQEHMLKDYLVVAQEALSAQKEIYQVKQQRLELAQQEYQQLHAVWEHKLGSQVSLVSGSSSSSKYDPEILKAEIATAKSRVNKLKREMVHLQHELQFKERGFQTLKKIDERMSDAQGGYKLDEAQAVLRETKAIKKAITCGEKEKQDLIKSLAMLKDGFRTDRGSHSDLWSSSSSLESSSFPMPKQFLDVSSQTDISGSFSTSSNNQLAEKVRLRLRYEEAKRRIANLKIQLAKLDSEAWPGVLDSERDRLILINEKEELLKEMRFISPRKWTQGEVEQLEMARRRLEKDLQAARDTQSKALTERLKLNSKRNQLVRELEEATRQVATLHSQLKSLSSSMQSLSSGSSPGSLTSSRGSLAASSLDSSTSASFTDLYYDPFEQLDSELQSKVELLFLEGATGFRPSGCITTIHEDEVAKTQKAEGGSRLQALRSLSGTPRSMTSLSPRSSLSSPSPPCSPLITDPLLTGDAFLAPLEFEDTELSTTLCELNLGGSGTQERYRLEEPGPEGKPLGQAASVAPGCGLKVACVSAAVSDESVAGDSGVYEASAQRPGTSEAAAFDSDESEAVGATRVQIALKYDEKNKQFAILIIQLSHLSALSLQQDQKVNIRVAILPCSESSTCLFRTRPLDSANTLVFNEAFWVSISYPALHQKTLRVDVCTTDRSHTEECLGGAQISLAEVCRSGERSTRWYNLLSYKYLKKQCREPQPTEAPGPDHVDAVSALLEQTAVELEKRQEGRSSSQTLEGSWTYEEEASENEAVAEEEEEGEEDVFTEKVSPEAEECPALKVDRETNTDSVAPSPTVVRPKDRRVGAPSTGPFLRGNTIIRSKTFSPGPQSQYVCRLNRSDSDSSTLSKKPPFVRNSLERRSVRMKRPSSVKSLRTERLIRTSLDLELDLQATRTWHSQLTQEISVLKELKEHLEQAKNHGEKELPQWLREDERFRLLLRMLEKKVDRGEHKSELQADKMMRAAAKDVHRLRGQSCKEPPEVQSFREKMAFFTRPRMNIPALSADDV
Chain of mGFP-KIBRA ΔαBR (Q5SXA9 whole entry, stated change not applied): as above
Chain of mGFP-KIBRA ΔCCL (Q5SXA9 whole entry, stated change not applied): as above
Chain of mCherry-KIBRA WT (mouse) (Q5SXA9 whole entry): as the sequence (Q5SXA9 whole entry, stated change not applied) above
Chain of mGFP-PICK1 BAR (domain or fragment) (Q62083 whole entry, the tested form may be a part): as the sequence (Q62083 whole entry) above
Chain of mGFP-PICK1 KD-AA (Q62083 whole entry): as above
Chain of Myc-GluA2 (P19491 22-883): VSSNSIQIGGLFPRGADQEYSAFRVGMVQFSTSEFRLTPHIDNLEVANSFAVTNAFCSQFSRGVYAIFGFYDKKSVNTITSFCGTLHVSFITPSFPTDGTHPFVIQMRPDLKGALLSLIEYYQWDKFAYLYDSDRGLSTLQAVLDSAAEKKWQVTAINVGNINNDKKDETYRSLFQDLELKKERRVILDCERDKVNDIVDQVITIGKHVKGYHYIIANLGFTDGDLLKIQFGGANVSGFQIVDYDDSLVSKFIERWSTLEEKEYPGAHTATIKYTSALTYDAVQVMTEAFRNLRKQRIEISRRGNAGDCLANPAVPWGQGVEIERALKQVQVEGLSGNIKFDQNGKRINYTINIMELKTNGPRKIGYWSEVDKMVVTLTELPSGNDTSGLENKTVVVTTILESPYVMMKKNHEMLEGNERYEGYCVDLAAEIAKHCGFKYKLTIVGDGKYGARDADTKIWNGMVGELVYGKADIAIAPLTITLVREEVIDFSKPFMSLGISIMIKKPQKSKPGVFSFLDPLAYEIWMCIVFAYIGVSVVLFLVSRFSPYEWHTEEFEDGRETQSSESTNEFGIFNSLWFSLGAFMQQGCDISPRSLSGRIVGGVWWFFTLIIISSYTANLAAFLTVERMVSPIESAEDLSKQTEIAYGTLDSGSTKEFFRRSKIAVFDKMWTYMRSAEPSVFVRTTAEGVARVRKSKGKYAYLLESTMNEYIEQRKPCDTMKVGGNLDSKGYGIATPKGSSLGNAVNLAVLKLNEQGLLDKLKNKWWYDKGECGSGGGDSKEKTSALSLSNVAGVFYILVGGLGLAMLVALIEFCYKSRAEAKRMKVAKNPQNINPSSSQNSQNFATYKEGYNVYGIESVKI
Chain of mCherry-KIBRA WT (Q5SXA9 whole entry): as the sequence (Q5SXA9 whole entry, stated change not applied) above
Chain of mGFP-KIBRA ΔWW (Q5SXA9 whole entry, stated change not applied): as above

As to “Myc-GluA2 (from UniProt P19491 22-883) (receptor)”, the co-precipitated GluA2 relative to PICK1 WT (mCherry-KIBRA co-expressed) in the assay with mGFP-PICK1 5K-E (mouse) is 0.27 fold of WT.

As for “mCherry-KIBRA WT (from UniProt Q5SXA9 1-1104) (natural protein)”, the co-precipitated KIBRA relative to PICK1 WT in the assay with mGFP-PICK1 5K-E (mouse) was 0.63 fold of WT.

In the case of “mGFP-KIBRA ΔC2 (from UniProt Q5SXA9 1-1104) (natural protein)”, the co-precipitated mGFP-KIBRA relative to KIBRA WT with mGFP-KIBRA ΔC2 (mouse) was 1.36 fold of WT. Further, the co-precipitated KIBRA relative to KIBRA WT with mCherry-PICK1 WT (mouse) was 1.29 fold of WT.

Turning to “mGFP-KIBRA ΔCCL (from UniProt Q5SXA9 1-1104) (natural protein)”, the co-precipitated mGFP-KIBRA relative to KIBRA WT in the assay with mGFP-KIBRA ΔCCL (mouse) was 1.6 fold of WT. Also, the co-precipitated KIBRA relative to KIBRA WT with mCherry-PICK1 WT (mouse) is 1.48 fold of WT.

For “mGFP-KIBRA ΔWW (from UniProt Q5SXA9 1-1104) (natural protein)”, the co-precipitated KIBRA relative to KIBRA WT with mCherry-PICK1 WT (mouse) was 1.79 fold of WT.

“mGFP-KIBRA ΔαBR (from UniProt Q5SXA9 1-1104) (natural protein)”: in the assay with mGFP-KIBRA ΔαBR (mouse), the co-precipitated mGFP-KIBRA relative to KIBRA WT was 1.55 fold of WT. Also, in the assay with mCherry-PICK1 WT (mouse), the co-precipitated KIBRA relative to KIBRA WT was 1.94 fold of WT.

As for mGFP-PICK1 BAR (domain or fragment), the co-precipitated PICK1 relative to PICK1 WT with mCherry-KIBRA WT (mouse) is 1.62 fold of WT.

As to “mGFP-PICK1 KD-AA (from UniProt Q62083 1-416) (natural protein)”, the co-precipitated PICK1 relative to PICK1 WT with mCherry-KIBRA WT (mouse) was 0.81 fold of WT.
